The source of these data is PMC3861454, “Structures of Wnt-Antagonist ZNRF3 and Its Complex with R-Spondin 1 and Implications for Signaling” (PLoS ONE, 2013).

The target of assay [1] is RNF43 (Homo sapiens) (UniProt Q68DV7). The assay can be described thus: ITC. To be noted: cited from earlier work.
Assay [2] shares this target. The assay can be described thus: ITC. The note with it: cited from earlier work. This is another data set of the same source.
For assay [3], the target named is T1, ZNRF3 ectodomain with C-terminal biotin acceptor peptide (C-BAP) tag, biotinylated in vivo (mouse, UniProt Q5SSZ7 53-216, biotin on the biotin acceptor peptide tag (in-vivo biotinylation by BirA)).
T1 construct: ZNRF3 ectodomain; also called Biotinylated ZNRF3; source: HEK293-E cells, co-expressed with biotin ligase (BirA); not shown: biotin acceptor peptide (BAP), C-terminal, kept
T1 sequence (looked up): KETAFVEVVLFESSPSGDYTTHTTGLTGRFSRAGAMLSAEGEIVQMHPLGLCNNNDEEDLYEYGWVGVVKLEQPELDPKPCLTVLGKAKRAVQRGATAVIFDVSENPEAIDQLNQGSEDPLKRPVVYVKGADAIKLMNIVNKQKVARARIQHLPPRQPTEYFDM
Put plainly: SPR; IBIS MX96; biotinylated ZNRF3 immobilised on a G-streptavidin sensor chip at different ligand densities; analytes flowed in 25 mM HEPES pH 8.0, 150 mM NaCl, 25 °C; equilibrium dose-response, global fit to a 1:1 binding model. To be noted: both partners purified. On the technique in general: SPR reads the build-up and loss of mass on a sensor chip optically.

Sequence of RNF43 (Homo sapiens) (Q68DV7 24-197): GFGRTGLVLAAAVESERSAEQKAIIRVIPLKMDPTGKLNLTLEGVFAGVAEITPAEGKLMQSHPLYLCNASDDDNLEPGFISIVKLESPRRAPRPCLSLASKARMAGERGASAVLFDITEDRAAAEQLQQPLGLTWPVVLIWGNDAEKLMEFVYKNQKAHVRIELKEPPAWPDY

For orientation: Kd means the constant that tells how readily two partners part at equilibrium. As to RSPO1 (from UniProt Q2MKA7), the values for the Kd with RNF43 (Homo sapiens) [1] and in the assay with RNF43 (Homo sapiens) [2] were 750 nM and 8500 nM, respectively.

B1: R-spondin 1 (RSPO1) furin-like domains Fu1 and Fu2 (domain or fragment)
chain: RISAEGSQACAKGCELCSEVNGCLKCSPKLFILLERNDIRQVGVCLPSCPPGYFDARNPDMNKCIKCKIEHCEACFSHNFCTKCKEGLYLHKGRCYPACPEGSSAANGTMECSSPA
notes: R-spondin 1, fragment consisting of the Fu1 and Fu2 domains; source: HEK 293E (EBNA) cells, purified (Ni-NTA, gel filtration); as described previously [18]
As to B1, the Kd in assay [3] is 1900 nM.
